{"source": "paper PMC12405362", "proteins": {"B1": {"name": "CiCQE3 (Cichorium intybus) (protein)", "chain": "CYPSIISFGDSLADTGNVKEMASKSNVHAPHFLFPPYGETFFNKPTGRCSNGRLIIDFVAESLGLPLIPPSLGSKTNVHVTGLGQGVNYAVAGATALDSSFHEERGVEIWTNASLGVQLGWFKDSLSSICSSVADCRQLIGQSLVLMGEIGGNDYNHALVAGKSIDEVETYVPFVINTIVSAVNELIELGAETLVIPGNLPIGCSAAYLTIFYGSSEVQYDNSTGCIITLNKLAEYHNEFLQKKLHQIRELHPDVNIIYADYYNAAMQFFRSPNKYGFTNGALKACCGGGGPFNYNPSIDCADPASTSCAQPDTYVNWDGLHLTEAAYRVIFKSIFEGSYTTPRFNALCPTSMLQGVGGFSSSI"}}, "substrate": "O=C(/C=C/c1ccc(O)c(O)c1)O[C@@H]1C[C@](O)(C(=O)O)C[C@@H](O)[C@H]1O", "assay": "purified protein", "conditions": "tri-buffer (0.1 M acetic acid, 0.1 M Tris, 20 mM MES) pH 6, 30°C, 15 min, hydrolysis"}
{"protein": "B1", "values": [{"measurement": "Km", "value": 1740, "unit": "µM"}, {"measurement": "kcat", "value": 0.466, "unit": "s⁻¹"}]}
